Here are results for three substances from patent publication US20210188948A1.

What all share (test): cell-based or functional assay
The target of assay [1] is West Nile virus (WNV) reporter virus particles (RVPs) (West Nile virus).
Assay [2] has as its target DENV4 reporter virus particles (RVPs) (Dengue virus serotype 4).
Assay [3] concerns the target DENV1 reporter virus particles (RVPs) (Dengue virus serotype 1).
The target of assay [4] is DENV3 reporter virus particles (RVPs) (Dengue virus serotype 3).
Assay [5] addresses Zika virus (ZIKV) reporter virus particles (RVPs) (Zika virus).

As for monoclonal antibody E16, the percent neutralization in assay [1] is 99%; in assay [2], -177%; in assay [3], -303%; in assay [4], -415%; in assay [5], -38%.

For monoclonal antibody C10, the percent neutralization in assay [1] was -195%; in assay [2], 98%; in assay [3], 52%; in assay [4], -95%; in assay [5], 99%. Moreover, the IC50 (neutralization) in assay [2] stood at 0.038 µg/mL; in assay [3], 0.352 µg/mL; in assay [4], 0.753 µg/mL; in assay [5] it was 0.038 µg/mL.

WNV-specific mAb CR4354 (antibody): the IC50 (neutralization) in assay [1] came to 0.007 µg/mL.
